# Results as given in patent publication US20180148504A1.
# B1: farletuzumab (MORAb-003) (antibody, part only; not given: Constant regions, V domains shown, not shown: another chain or arm of the molecule)
# VH: EVQLVESGGGVVQPGRSLRLSCSASGFTFSGYGLSWVRQAPGKGLEWVAMISSGGSYTYYADSVKGRFAISRDNAKNTLFLQMDSLRPEDTGVYFCARHGDDPAWFAYWGQGTPVTVSS
# VL: DIQLTQSPSSLSASVGDRVTITCSVSSSISSNNLHWYQQKPGKAPKPWIYGTSNLASGVPSRFSGSGSGTDYTFTISSLQPEDIATYYCQQWSSYPYMYTFGQGTKVEIK
# Columns and labels:
# [1] = biological target: endogenous folate receptor alpha in human serum and plasma samples (human) (UniProt P15328); test: ECL sandwich capture 19D2.G9 / detection 19D4.B7; serum incubated overnight with 10 µg/mL MORAb-003
# [2] = biological target: recombinant purified FRα (ECL assay calibrator) (human) (UniProt P15328); test: ECL sandwich competition; competitors 9F3 capture / 24F12 detection; FRα standard STD03; MORAb-003 10 µg/mL
# [3] = biological target: endogenous folate receptor alpha in human serum and plasma samples (human) (UniProt P15328); test: ECL sandwich capture 6A2.G7 / detection 1C6.E12.G8; serum incubated overnight with 10 µg/mL MORAb-003
# [4] = biological target: endogenous folate receptor alpha in human serum and plasma samples (human) (UniProt P15328); test: ECL sandwich capture 1A8.G11.E7 / detection 19D4.B7; serum incubated overnight with 10 µg/mL MORAb-003
# [5] = biological target: recombinant purified FRα (ECL assay calibrator) (human) (UniProt P15328); test: ECL sandwich competition; competitors 9F3 capture / 24F12 detection; FRα standard STD02; MORAb-003 50 µg/mL
# [6] = biological target: endogenous folate receptor alpha in human serum and plasma samples (human) (UniProt P15328); test: ECL sandwich capture 19D4.B7 / detection 1A8.G11.E7; serum incubated overnight with 10 µg/mL MORAb-003
# [7] = biological target: endogenous folate receptor alpha in human serum and plasma samples (human) (UniProt P15328); test: ECL sandwich, positive control +CONT: capture 26B3.F2 (f1) / detection 19D4.B7; serum incubated overnight with 10 µg/mL MORAb-003
# [8] = biological target: recombinant purified FRα (ECL assay calibrator) (human) (UniProt P15328); test: ECL sandwich competition; competitors 9F3 capture / 24F12 detection; FRα standard STD08; MORAb-003 10 µg/mL
# [9] = biological target: recombinant purified FRα (ECL assay calibrator) (human) (UniProt P15328); test: ECL sandwich competition; competitors 9F3 capture / 24F12 detection; FRα standard STD03; MORAb-003 50 µg/mL
# [10] = biological target: recombinant purified FRα (ECL assay calibrator) (human) (UniProt P15328); test: ECL sandwich capture 6A2.G7 / detection 19D4.B7; calibrator incubated overnight with 10 µg/mL MORAb-003
# [11] = biological target: endogenous folate receptor alpha in human serum and plasma samples (human) (UniProt P15328); test: ECL sandwich capture 19D4.B7 / detection 24H8.F3; serum incubated overnight with 10 µg/mL MORAb-003
# [12] = biological target: endogenous folate receptor alpha in human serum and plasma samples (human) (UniProt P15328); test: ECL sandwich capture 19D4.B7 / detection 19D2.G9; serum incubated overnight with 10 µg/mL MORAb-003
# [13] = biological target: recombinant purified FRα (ECL assay calibrator) (human) (UniProt P15328); test: ECL sandwich capture 1A8.G11.E7 / detection 19D4.B7; calibrator incubated overnight with 10 µg/mL MORAb-003
# [14] = biological target: recombinant purified FRα (ECL assay calibrator) (human) (UniProt P15328); test: ECL sandwich capture 19D4.B7 / detection 1C6.E12.G8; calibrator incubated overnight with 10 µg/mL MORAb-003
# [15] = biological target: recombinant purified FRα (ECL assay calibrator) (human) (UniProt P15328); test: ECL sandwich capture 19D2.G9 / detection 19D4.B7; calibrator incubated overnight with 10 µg/mL MORAb-003
# [16] = biological target: recombinant purified FRα (ECL assay calibrator) (human) (UniProt P15328); test: ECL sandwich capture 24H8.D3 / detection 19D4.B7; calibrator incubated overnight with 10 µg/mL MORAb-003
# [17] = biological target: recombinant purified FRα (ECL assay calibrator) (human) (UniProt P15328); test: ECL sandwich capture 24H8.F3 / detection 19D4.B7; calibrator incubated overnight with 10 µg/mL MORAb-003
# [18] = biological target: recombinant purified FRα (ECL assay calibrator) (human) (UniProt P15328); test: ECL sandwich capture 6A2.G7 / detection 19D2.G9; calibrator incubated overnight with 10 µg/mL MORAb-003
# [19] = biological target: recombinant purified FRα (ECL assay calibrator) (human) (UniProt P15328); test: ECL sandwich competition; competitors 9F3 capture / 24F12 detection; FRα standard STD06; MORAb-003 50 µg/mL
# [20] = biological target: recombinant purified FRα (ECL assay calibrator) (human) (UniProt P15328); test: ECL sandwich capture 1A8.G11.E7 / detection 6A2.G7; calibrator incubated overnight with 10 µg/mL MORAb-003
# [21] = biological target: recombinant purified FRα (ECL assay calibrator) (human) (UniProt P15328); test: ECL sandwich competition; competitors 9F3 capture / 24F12 detection; FRα standard STD02; MORAb-003 10 µg/mL
# [22] = biological target: endogenous folate receptor alpha in human serum and plasma samples (human) (UniProt P15328); test: ECL sandwich capture 24H8.F3 / detection 19D4.B7; serum incubated overnight with 10 µg/mL MORAb-003
# [23] = biological target: recombinant purified FRα (ECL assay calibrator) (human) (UniProt P15328); test: ECL sandwich capture 19D4.B7 / detection 1A8.G11.E7; calibrator incubated overnight with 10 µg/mL MORAb-003
# [24] = biological target: recombinant purified FRα (ECL assay calibrator) (human) (UniProt P15328); test: ECL sandwich capture 6A2.G7 / detection 1D2.G8.G10; calibrator incubated overnight with 10 µg/mL MORAb-003
# Chain of endogenous folate receptor alpha in human serum and plasma samples (human) (P15328 25-234 limits assumed, form in doubt): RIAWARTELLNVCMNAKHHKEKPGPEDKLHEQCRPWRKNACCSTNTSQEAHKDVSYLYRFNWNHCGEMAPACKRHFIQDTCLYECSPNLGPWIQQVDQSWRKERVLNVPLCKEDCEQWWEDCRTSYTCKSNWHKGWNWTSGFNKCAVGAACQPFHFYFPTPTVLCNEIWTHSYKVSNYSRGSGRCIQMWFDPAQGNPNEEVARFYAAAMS
# Chain of recombinant purified FRα (ECL assay calibrator) (human) (P15328 25-234 limits assumed): as the sequence (P15328 25-234 limits assumed, form in doubt) above
binder,measurement,setting,value
B1,Drug suppression of serum,[1],4.68%
same,% of signal without MORAb-003 (MORAb-003 interference),[2],61%
same,Drug suppression of serum,[3],-22.2%
same,Drug suppression of serum,[4],-4.78%
same,% of signal without MORAb-003 (MORAb-003 interference),[5],49%
same,Drug suppression of serum,[6],-4.92%
same,Drug suppression of serum,[7],12.1%
same,% of signal without MORAb-003 (MORAb-003 interference),[8],121%
same,% of signal without MORAb-003 (MORAb-003 interference),[9],58%
same,Drug Suppression of Cal Signal at 500 pg/mL,[10],-13%
same,Drug suppression of serum,[11],-10.6%
same,Drug suppression of serum,[12],-3.38%
same,Drug Suppression of Cal Signal at 500 pg/mL,[13],-16%
same,Drug Suppression of Cal Signal at 500 pg/mL,[14],-18%
same,Drug Suppression of Cal Signal at 500 pg/mL,[15],2%
same,Drug Suppression of Cal Signal at 500 pg/mL,[16],-3%
same,Drug Suppression of Cal Signal at 500 pg/mL,[17],9%
same,Drug Suppression of Cal Signal at 500 pg/mL,[18],-7%
same,% of signal without MORAb-003 (MORAb-003 interference),[19],78%
same,Drug Suppression of Cal Signal at 500 pg/mL,[20],16%
same,% of signal without MORAb-003 (MORAb-003 interference),[21],70%
same,Drug suppression of serum,[22],-13%
same,Drug Suppression of Cal Signal at 500 pg/mL,[23],-2%
same,Drug Suppression of Cal Signal at 500 pg/mL,[24],-7%
